From patent US5906819, “Rho target protein Rho-kinase” (Kirin Beer Kabushiki Kaisha, dated 1999) come the findings set out here.

One assay addresses GTPγS·GST-H-Ras (Homo sapiens (Human), UniProt P01112). Description: GST-small G-protein glutathione-Sepharose affinity column.
Another assay addresses GTPγS·GST-Rac1 (Homo sapiens (Human), UniProt P63000). The description is as above.
In another assay the target is GST (Schistosoma japonicum (Blood fluke), UniProt P08515 = GST). Nature of the assay: GST-small G-protein glutathione-Sepharose affinity column, SDS-PAGE and silver staining.

B1: bovine Rho-kinase (enzyme)
chain: MSRPPPTGKMPGAPEAVSGDGAGASRQRKLEALIRDPRSPINVESLLDGLNPLVLDLDFPALRKNKNIDNFLNRYEKIVKKIRGLQMKAEDYDVVKVIGRGAFGEVQLVRHKASQKVYAMKLLSKFEMIKRSDSAFFWEERDIMAFANSPWVVQLFCAFQDDKYLYMVMEYMPGGDLVNLMSNYDVPEKWAKFYTAEVVLALDAIHSMGLIHRDVKPDNMLLDKHGHLKLADFGTCMKMDETGMVHCDTAVGTPDYISPEVLKSQGGDGYYGRECDWWSVGVFLFEMLVGDTPFYADSLVGTYSKIMDHKNSLCFPEDAEISKHAKNLICAFLTDREVRLGRNGVEEIKQHPFFKNDQWNWDNIRETAAPVVPELSSDIDSSNFDDIEDDKGDVETFPIPKAFVGNQLPFIGFTYYRENLLLSDSPSCKENDSIQSRKNEESQEIQKKLYTLEEHLSTEIQAKEELEQKCKSVNTRLEKVAKELEEEITLRKNVESTLRQLEREKALLQHKNAEYQRKADHEADKKRNLENDVNSLKDQLEDLKKRNQNSQISTEKVNQLQRQLDETNALLRTESDTAARLRKTQAESSKQIQQLESNNRDLQDKNCLLETAKLKLEKEFINLQSVLESERRDRTHGSEIINDLQGRISGLEEDVKNGKILLAKVELEKRQLQERFTDLEKEKNNMEIDMTYQLKVIQQSLEQEETEHKATKARLADKNKIYESIEEAKSEAMKEMEKKLSEERTLKQKVENLLLEAEKRCSILDCDLKQSQQKINELLKQKDVLNEDVRNLTLKIEQETQKRCLTQNDLKMQTQQVNTLKMSEKQLKQENNHLLEMKMSLEKQNAELRKERQDADGQMKELQDQLEAEQYFSTLYKTQVRELKEECEEKTKLCKELQQKKQELQDERDSLAAQLEITLTKADSEQLARSIAEEQYSDLEKEKIMKELEIKEMMARHKQELTEKDATIASLEETNRTLTSDVANLANEKEELNNKLKEAQEQLSRLKDEEISAAAIKAQFEKQLLTERTLKTQAVNKLAEIMNRKEPVKRGNDTDVRRKEKENRKLHMELKSEREKLTQQMIKYQKELNEMQAQIAEESQIRIELQMTLDSKDSDIEQLRSQLQALHIGLDSSSIGSGPGDTEADDGFPESRLEGWLSLPVRNNTKKFGWVKKYVIVSSKKILFYDSEQDKEQSNPYMVLDIDKLFHVRPVTQTDVYRADAKEIPRIFQILYANEGESKKEQEFPVEPVGEKSNYICHKGHEFIPTLYHFPTNCEACMKPLWHMFKPPPALECRRCHIKCHKDHMDKKEEIIAPCKVYYDISSAKNLLLLANSTEEQQKWVSRLVKKIPKKPPAPDPFARSSPRTSMKIQQNQSIRRPSRQLAPNKPS
B1: the binding result is on record as “no binding” in the assay with GTPγS·GST-H-Ras, “no binding” with GTPγS·GST-Rac1 and “no binding (tested: 24 nmol on the column)” with GST.
